A short description of series [1]: Solubility of the dried iron (III) casein N-acetyl-L-aspartylated complex. It counts as physicochemical. The protocol: The moist pure product obtained in the previous stage is dried under vacuum, at a temperature increasing from 60° C. to 70° C., for an overall period of 24 hours. After the desiccation process, 6.5 g of pure iron (III) casein N-acetyl-L-aspartylated complex are obtained, with a water content <5 wt % (Karl Fisher), having the following chemical and physicochemical characteristics:
The moist pure product obtained in the previous stage is dried under vacuum, at a temperature increasing from 60° C. to 70° C., for an overall period of 24 hours. After the desiccation process, 6.6 g of pure iron (III) casein: N-acetyl-L-aspartylated complex are obtained, with a water content<5 wt % (Karl Fisher), having the following chemical and physicochemical characteristics:
The moist pure product obtained in the previous stage is dried under vacuum, at a temperature increasing from 60° C. to 70° C., for an overall period of 24 hours. After the desiccation process, 6.4 g of pure iron (III) casein N-acetyl-L-aspartylated complex are obtained, with a water content<5 wt % (Karl Fisher), having the following chemical and physicochemical characteristics: […]

Series [2] concerns patients with iron deficiency anaemia. As to conditions: cited from earlier work.
The subject of a further series is rats. As to conditions: complex containing 5% iron; cited from earlier work.
In another series the test system is dogs. As to conditions: complex containing 5% iron; cited from earlier work.

The text below walks through data of patent publication US20170340747A1, “PROCESS FOR PRODUCING IRON (III) CASEIN N-ACETYL-ASPARTYLATED COMPLEXES AND USE THEREOF IN PHARMACEUTICAL COMPOSITIONS” (priority 2014, published 2017).

As to ferro-N-acetyl-L-aspartylated casein, in series [1], the “Solubility at alkaline pH values” is given as “completely soluble at alkaline pH values”.

Turning to “iron (III) casein N-acetyl-L-aspartylated complex [Example 3]”, in series [1], the Solubility entry is on record as “Soluble in NaOH pH = 8”.

As for “iron (III) casein: N-acetyl-L-aspartylated complex [Example 2]”, the Solubility result in series [1] is “Soluble in NaOH pH = 8”.

For “iron-acetyl-aspartylated casein [Fe-ASP]”, in series [2] (controlled clinical trials, compared with iron protein succinylate (IPS)), the “Changes in clinical and haematological profiles” value was “virtually identical to those seen with iron protein succinylate (IPS)”. Moreover, in series [2] (human, in vivo), the Safety result is listed as “No safety considerations were raised”. The “Clinical and haematological parameters after treatment” value in series [2] (open clinical trials, all categories of patients with iron deficiency anaemia) was “highly significant improvements”.

Turning to “iron-protein succinylate [iron succinyl casein complex]”, the Gastrointestinal tolerability result in the series on rats and with dogs was “better gastrointestinal tolerability” in each case.
